Measurements from PMC9481538, “The interaction between LC8 and LCA5 reveals a novel oligomerization function of LC8 in the ciliary-centrosome system” (Scientific Reports, 2022).

Tests used:
LC8 = biological target: T1, LC8 (Homo sapiens, UniProt Q96FJ2); details: literature, ref (6)-(10) of supplement, cited from earlier work; for Number of monomeric LC8 in complex / Number of monomeric binding partners in complex: composition of complexes
T1 construct: 6xHis (N); made in house; host or cells: E. coli BL21 (DE3) Rosetta
T1 sequence (Q96FJ2 whole entry): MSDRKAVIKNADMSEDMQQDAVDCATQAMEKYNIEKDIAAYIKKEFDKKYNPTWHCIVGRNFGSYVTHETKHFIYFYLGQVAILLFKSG
Source text: According to the standard model of LC8 interactions, the dimeric interface of LC8 presents two interaction sites for partners which also form dimers, implying a 1:1 stoichiometry. Partners with two adjacent binding motifs, like ANA2, follow a 1:2 stoichiometry by binding two LC8[18]. Intriguingly, we observed a 2:1 LCA5:LC8 stoichiometry for the ΔCQS and the ΔVQT mutants, which means that one LC8 dimer binds four LCA5 chains (Supplementary Table S1). A reasonable interpretation is that the native LCA5 is dimeric and thus a pair of LCA5 dimers bind to one dimeric LC8. In such a situation, one i ... || page 10: Composition of complexes Number of LC8 Number of Ratio of LCA5 LC8 binding monomeric binding monomeric LC8 in monomers to LC8 Gene name sites partners in complex complex monomers SWA (6) 1 2 2 1:1 DYNC1I1 (7) 1 2 2 1:1 WDR34-WDR60 3 1+1 6 1:3 (8) ANA2 (9) 2 2 4 1:2 ASCIZ (10) 11 2 22 1:11 sLCA5-WT 2 4 4 1:1 sLCA5-single 1 4 2 2:1 mutants Supplementary Table S1. Stoichiometries of various LC8 binding partners in complex with LC8. Known LC8 binding partners according to literature data always form dimers upon LC8 binding. The stoichiometry is basically 1:1 in case of one LC8 binding sit ...

LC8 in hTERT-RPE1 cells = assay: immunofluorescence colocalization of LCA5 and LC8; format: cell-based; details: for Pearson's correlation coefficient, LCA5 and LC8: Z-stack images, JACoP
Description: hTERT-RPE1 cells were seeded on poly-lysine-coated 21 mm coverslips. After 24 h, cells were serum-starved for an additional 72 h. Cells were washed with DPBS (Lonza) two times and once in cytoskeletal buffer (10 mM PIPES, 100 mM NaCl, 3 mM MgCl2, 300 mM Sucrose, 5 mM EGTA, 0.5% Triton-X 100, pH 6.9)[44]. Subsequently, cells were fixed in a cytoskeletal buffer containing 4% PFA for 10 min at 37 °C. Fixed cells were washed with DPBS and permeabilised for an additional 30 min in 0.5% Triton-X 100 in DPBS and incubated for 1 h in a blocking buffer (2% BSA, 0.1% Triton-X 100 in DPBS) at room temperature. Primary and secondary antibodies were diluted in a blocking buffer. The cells were incubated with rabbit anti-lebercilin 1:200 (Proteintech 19,333-1-AP), goat anti-LC8 1:100 (Invitrogen PA5-47,957), mouse anti-acetylated-α-tubulin 1:15,000 (Sigma Aldrich 5335S) overnight at 4 °C. Finally, cells were treated with secondary antibodies (anti-goat-Alexa Fluor 488 1:800, anti-mouse-CY3 1:800, anti-rabbit-Alexa Fluor 647 1:800 Jackson ImmunoResearch) for 1 h at room temperature. Coverslips were mounted using ProLong Diamond antifade mountant with DAPI (Invitrogen) and imaged with an inverted Zeiss LSM 800, the image processing was completed with Fiji ImageJ software. The calculations of the colocalization were performed using the JACoP plugin of ImageJ software. The Pearson’s coefficient and the Manders coefficients were calculated on Z-stack images of primary cilia and centrosomes of hTERT-RPE1 cells using manual thresholds. For the statistical analysis of the colocalization a randomization based Costes method was used.

[1] = centrosome, late interphase hTERT-RPE1 cells
[2] = ciliary basal body, ciliated hTERT-RPE1 cells

| Molecule | Number of monomeric LC8 in complex (LC8) | Number of monomeric binding partners in complex (LC8) | LC8 binding sites (LC8) | thresholded Manders LC8 to LCA5 tM2 (LC8 in hTERT-RPE1 cells; [1]) | thresholded Manders LCA5 to LC8 tM1 (LC8 in hTERT-RPE1 cells; [1]) | Pearson's correlation coefficient, LCA5 and LC8 (LC8 in hTERT-RPE1 cells; [1]) | thresholded Manders LC8 to LCA5 tM2 (LC8 in hTERT-RPE1 cells; [2]) | thresholded Manders LCA5 to LC8 tM1 (LC8 in hTERT-RPE1 cells; [2]) | Pearson's correlation coefficient, LCA5 and LC8 (LC8 in hTERT-RPE1 cells; [2]) |
| --- | --- | --- | --- | --- | --- | --- | --- | --- | --- |
| ASCIZ: known LC8 binding partner, literature (protein, UniProt O43313 1-823, looked up) ATM interactor: MAASEAAAAAGSAALAAGARAVPAATTGAAAAASGPWVPPGPRLRGSRPRPAGATQQPAVPAPPAGELIQPSVSELSRAVRTNILCTVRGCGKILPNSPALNMHLVKSHRLQDGIVNPTIRKDLKTGPKFYCCPIEGCPRGPERPFSQFSLVKQHFMKMHAEKKHKCSKCSNSYGTEWDLKRHAEDCGKTFRCTCGCPYASRTALQSHIYRTGHEIPAEHRDPPSKKRKMENCAQNQKLSNKTIESLNNQPIPRPDTQELEASEIKLEPSFEDSCGSNTDKQTLTTPPRYPQKLLLPKPKVALVKLPVMQFSVMPVFVPTADSSAQPVVLGVDQGSATGAVHLMPLSVGTLILGLDSEACSLKESLPLFKIANPIAGEPISTGVQVNFGKSPSNPLQELGNTCQKNSISSINVQTDLSYASQNFIPSAQWATADSSVSSCSQTDLSFDSQVSLPISVHTQTFLPSSKVTSSIAAQTDAFMDTCFQSGGVSRETQTSGIESPTDDHVQMDQAGMCGDIFESVHSSYNVATGNIISNSLVAETVTHSLLPQNEPKTLNQDIEKSAPIINFSAQNSMLPSQNMTDNQTQTIDLLSDLENILSSNLPAQTLDHRSLLSDTNPGPDTQLPSGPAQNPGIDFDIEEFFSASNIQTQTEESELSTMTTEPVLESLDIETQTDFLLADTSAQSYGCRGNSNFLGLEMFDTQTQTDLNFFLDSSPHLPLGSILKHSSFSVSTDSSDTETQTEGVSTAKNIPALESKVQLNSTETQTMSSGFETLGSLFFTSNETQTAMDDFLLADLAWNTMESQFSSVETQTSAEPHTVSNF | 22 | 2 | 11 |  |  |  |  |  |  |
| SWA: known LC8 binding partner, literature (protein, UniProt P40688 1-548, looked up) Protein swallow: MSLQDESFPTDELFDQLNNLSSSGARNTWFAEHHKPAVFERDTAPFLEICYADPDFDADGDVANKSAKTCVSDPVGRDQEDEDDYDEDVDGDDHKLGCEKAPLGSGRSSKAVSYQDIHSAYTKRRFQHVTSKVGQYIAEIQAQDQKRRNVKFAGFQRVNSMPESLTPTLQQVYVHDGDFKVDKNCQTHSNSDSNYNSNSNNSSSSFDRLLAENESLQQKINSLRVEAKRLQGFNEYVQERLDRKTDDFVKMKCNFETLRTELSECQQKLRRQQDNSQHHFMYHIRSATSAKATQTDFLVDTIPASGNVLVTPHPLGDLTYNSSKGSIELALLSVAPSARVAQNPVQVQRAIHPQSLDFSSVSTEADGSGSGEHRVETSSRALVRRTPAPNNSETSQPSSNDSAIEVEAHEEERPSSRRQWEQQGELISPRQWGQHEGMYYFDKRNNRVIEVMGFNISQGRNQSHDTIHNQSINDSQTRLLVHSMSMSHLEAHDHFRSKRTTLGSRMLRFLGPCVRCRNGDPLNRSNVTYKDGLPAMPEEEFVDQRNQR | 2 | 2 | 1 |  |  |  |  |  |  |
| DYNC1I1: known LC8 binding partner, literature (protein, UniProt O14576 2-645, looked up) Cytoplasmic dynein 1 …: SDKSDLKAELERKKQRLAQIREEKKRKEEERKKKEADMQQKKEPVQDDSDLDRKRRETEALLQSIGISPEPPLVQPLHFLTWDTCYFHYLVPTPMSPSSKSVSTPSEAGSQDSGDLGPLTRTLQWDTDPSVLQLQSDSELGRRLHKLGVSKVTQVDFLPREVVSYSKETQTPLATHQSEEDEEDEEMVESKVGQDSELENQDKKQEVKEAPPRELTEEEKQQILHSEEFLIFFDRTIRVIERALAEDSDIFFDYSGRELEEKDGDVQAGANLSFNRQFYDEHWSKHRVVTCMDWSLQYPELMVASYNNNEDAPHEPDGVALVWNMKFKKTTPEYVFHCQSSVMSVCFARFHPNLVVGGTYSGQIVLWDNRSHRRTPVQRTPLSAAAHTHPVYCVNVVGTQNAHNLITVSTDGKMCSWSLDMLSTPQESMELVYNKSKPVAVTGMAFPTGDVNNFVVGSEEGTVYTACRHGSKAGIGEVFEGHQGPVTGINCHMAVGPIDFSHLFVTSSFDWTVKLWTTKHNKPLYSFEDNADYVYDVMWSPVHPALFACVDGMGRLDLWNLNNDTEVPTASVAIEGASALNRVRWAQAGKEVAVGDSEGRIWVYDVGELAVPHNDEWTRFARTLVEIRANRADSEEEGTVELSA | 2 | 2 | 1 |  |  |  |  |  |  |
| LCA5: 697 amino acid long protein lebercilin, cellular (protein, UniProt Q86VQ0 1-697, looked up, full-length, 697 amino acid long protein lebercilin, cellular) MGERAGSPGTDQERKAGKHHYSYLSDFETPQSSGRSSLVSSSPASVRRKNPKRQTSDGQVHHQAPRKPSPKGLPNRKGVRVGFRSQSLNREPLRKDTDLVTKRILSARLLKINELQNEVSELQVKLAELLKENKSLKRLQYRQEKALNKFEDAENEISQLIFRHNNEITALKERLRKSQEKERATEKRVKDTESELFRTKFSLQKLKEISEARHLPERDDLAKKLVSAELKLDDTERRIKELSKNLELSTNSFQRQLLAERKRAYEAHDENKVLQKEVQRLYHKLKEKERELDIKNIYSNRLPKSSPNKEKELALRKNAACQSDFADLCTKGVQTMEDFKPEEYPLTPETIMCYENKWEEPGHLTLDLQSQKQDRHGEAGILNPIMEREEKFVTDEELHVVKQEVEKLEDEWEREELDKKQKEKASLLEREEKPEWETGRYQLGMYPIQNMDKLQGEEEERLKREMLLAKLNEIDRELQDSRNLKYPVLPLLPDFESKLHSPERSPKTYRFSESSERLFNGHHLQDISFSTPKGEGQNSGNVRSPASPNEFAFGSYVPSFAKTSERSNPFSQKSSFLDFQRNSMEKLSKDGVDLITRKEKKANLMEQLFGASGSSTISSKSSDPNSVASSKGDIDPLNFLPGNKGSRDQEHDEDEGFFLSEGRSFNPNRHRLKHADDKPAVKAADSVEDEIEEVALR |  |  |  | 0.574 | 0.929 | 0.802 | 0.718 | 0.671 | 0.715 |
